Experimental data taken from patent US20260028391A1 (HUMABS BIOMED, published 2026).
Positions count from the first letter of the chain named.

Key:
RSV F B S443P = biological target: T1, RSV F B S443P (RSV B); assay: FACS, % binding to RSV F B variants
T1 construct: whole, on cells; also called mutant S443P

RSV F B K68N-N208S = biological target: T2, RSV F B K68N-N208S (RSV B); assay: FACS, % binding to RSV F B variants
T2 construct: whole, on cells

RSV F B N208D = biological target: T3, RSV F B N208D (RSV B); assay: FACS, % binding to RSV F B variants
T3 construct: whole, on cells

RSV F B K68N-N201S = biological target: T4, RSV F B K68N-N201S (RSV B); assay: FACS, % binding to RSV F B variants
T4 construct: whole, on cells

RSV F B N208S = biological target: T5, RSV F B N208S (RSV B); assay: FACS, % binding to RSV F B variants
T5 construct: whole, on cells; also called mutant N208S

RSV F B, B Ref = biological target: T6, RSV F B, B Ref (RSV B); assay: FACS, % binding to RSV F B variants
T6 construct: whole, on cells

RSV F B N201S = biological target: T7, RSV F B N201S (RSV B); assay: FACS, % binding to RSV F B variants
T7 construct: whole, on cells

RSV F A G446E = biological target: T8, RSV F A G446E (RSV A, strain A2, UniProt P03420 26-574); assay: FACS, % binding to RSV F A variants
T8 construct: whole, on cells

RSV F A L203I = biological target: T9, RSV F A L203I (RSV A, strain A2, UniProt P03420 26-574); assay: FACS, % binding to RSV F A variants
T9 construct: whole, on cells

RSV F A, A2 Ref = biological target: T10, RSV F A, A2 Ref (RSV A, strain A2, UniProt P03420 26-574); assay: FACS, % binding to RSV F A variants
T10 construct: whole, on cells

RSV F A S443P-K445N = biological target: T11, RSV F A S443P-K445N (RSV A, strain A2, UniProt P03420 26-574); assay: FACS, % binding to RSV F A variants
T11 construct: whole, on cells

RSV-A F = biological target: T12, RSV-A F (RSV A); assay: BLI
T12 construct: also called RSV F A

[1] = biological target: RSV A fusion glycoprotein (F), virus of the neutralisation assays of Tables 54 and 57 (RSV A); assay: cell-based or functional assay
RSV-B F = biological target: T13, RSV-B F (RSV B); assay: BLI
T13 construct: also called RSV F B

biot-RSV-F wt [2] = biological target: T14, biot-RSV-F wt (respiratory syncytial virus (RSV)); assay: BLI (Octet), biotinylated F on SA sensors, mAb 5 µg/ml
[3] = biological target: fusion glycoprotein (F) of MPV A GFP (Tables 41 and 43) (metapneumovirus A); assay: cell-based or functional assay
[4] = biological target: T15, RSV F expressed on transfected Expi293F cells (respiratory syncytial virus (RSV)); assay: flow cytometry, transfected Expi293F cells, fixed and permeabilised
biot-RSV-F wt [5] = biological target: T14, biot-RSV-F wt; assay: BLI, SA sensor loaded with biot-RSV-F wt, mAb 5 ug/ml, 4 min association, 6 min dissociation
[6] = biological target: fusion glycoprotein (F) of RSV B GFP (Tables 41 and 42) (respiratory syncytial virus B); assay: cell-based or functional assay
[7] = biological target: fusion glycoprotein (F) of RSV A GFP (Tables 41 and 42) (respiratory syncytial virus A); assay: cell-based or functional assay
biot-RSV-F wt [8] = biological target: T14, biot-RSV-F wt; assay: BLI, SA sensor loaded with biot-RSV-F wt, mAb 5 ug/ml, 4 min association, 6 min dissociation; remark: listed apart in the source
[9] = biological target: T15, RSV F expressed on transfected Expi293F …; assay: flow cytometry, transfected Expi293F cells, fixed and permeabilised; remark: listed apart in the source

B1: MPK201-v4.1 (antibody, V domains shown)
VH: QVQLVQSGAEVKKPGESLKISCQGSGYSFISYWIGWVRQKPGKGLEWMGIIYPFDSETKYSPSFQGHVTFSADKSINTAYVQWSSLRASDTAMYYCARFTFGLAVTTADVSGEGQAFEIWGQGTMVTVSS
VL: EIVMMQSPATLSVSPGERATLSCRASQSVAGNLAWYQQRPGQAPRLLVYGASTRASGVPARFSGSGSETEFTLTISSLQSEDFAVYYCHHYSDWPQAFGQGTRLDIK
% binding (RSV F B S443P): 31.5% | % binding (RSV F B K68N-N208S): 0.048% | % binding (RSV F B N208D): 0.018% | % binding (RSV F B K68N-N201S): 30% | % binding (RSV F B N208S): 0.016% | % binding (RSV F B, B Ref): 51.9% | % binding (RSV F B N201S): 33% | % binding (RSV F A G446E): 18% | % binding (RSV F A L203I): 13.1% | % binding (RSV F A, A2 Ref): 54.1% | % binding (RSV F A S443P-K445N): 2700% | Kd (RSV-A F): 0.292 nM | IC50, neutralization of RSVA [1]: 4.35 ng/mL | Kd (RSV-B F): 0.552 nM

B2: MPK104-v1.3-rIgG1m17,1-LS (antibody, V domains shown)
VH: QVQLVESGGGLVKPGGSLRLSCAASGFTIDGYGMNWVRQAPGKGLEWVSSISASSNYIYYADSMKGRFTISRDNGKNSLYLQMHSLRVEDTGVYYCARAPLEPPYFDLWGRGTLVTVSS
VL: QSVLTQPPSVSGAPGQRVTISCSGGSSNIGAGYDVHWYQQVPGKGPKVLIYGNTNRPSGVPDRFSGSNFGASASLAITGLQAEDEADYFCQSYDRRLGGPVFGGGTKLTVL
notes: also called MPK104-v1.3-rIgG1-LS
Kd (biot-RSV-F wt [2]): 0.209 nM | IC50 (ng/ml), MPV A GFP neutralization [3]: 5.57 ng/mL | Binding (FACS) relative to parental mAb MPK104-v1.1 [4]: 1.1 | Kd (biot-RSV-F wt [5]): 0.0924 nM | IC50 (ng/ml), RSV B GFP neutralization [6]: 6.49 ng/mL | IC50 (ng/ml), RSV A GFP neutralization [7]: 2.71 ng/mL

B3: MPK104-v1.1-rIgG1m17,1-LS (antibody, V domains shown)
VH: B2 VH
VL: B2 VL with T54N, E83D
notes: called the parental mAb (v1.1)
Binding (FACS) relative to parental mAb MPK104-v1.1 [4]: 1 | Kd (biot-RSV-F wt [5]): 0.0649 nM

B4: MPK190-v1.1-rIgG1m17,1-LS (antibody, V domains shown)
VH: QVQLVESGGGLVKPGGSLTLSCAASGFSISGYGMNWVRQAPGRGLEWVASISASSTYIYYADSMKGRFTISRDNGKTSLYLQMKSLRAEDTAVYYCARAPIEPPYFDLWGRGTLVTVSS
VL: QSVLTQPPSVSGAPGQRVTISCTGSNSNIGAGYDVHWYQHLPGKAPKVLIYGNNNRPSVVPDRFSGSNSGASASLAISGLQAEDEADYFCQSYDRRLSGPIFGGGTKLTVL
notes: also called MPK190-v1.1-rIgG1-LS
Kd (biot-RSV-F wt [2]): < 0.001 nM | Kd (biot-RSV-F wt [8]): < 0.001 nM | IC50 (ng/ml), MPV A GFP neutralization [3]: 4.03 ng/mL | Binding (FACS) relative to parental mAb MPK190-v1.1 [9]: 1 | IC50 (ng/ml), RSV B GFP neutralization [6]: 3.39 ng/mL | IC50 (ng/ml), RSV A GFP neutralization [7]: 3.54 ng/mL

B5: MPK190-v1.3-rIgG1m17,1-LS (antibody, V domains shown)
VH: B4 VH
VL: QSVLTQPPSVSGAPGQRVTISCTGSSSNIGAGYDVHWYQHLPGKAPKVLIYGNTNRPSVVPDRFSGSNSGASASLAISGLQAEDEADYFCQSYDRRLSGPIFGGGTKLTVLG
notes: also called MPK190-v1.3-rIgG1-LS
Kd (biot-RSV-F wt [2]): < 0.001 nM | Kd (biot-RSV-F wt [8]): < 0.001 nM | IC50 (ng/ml), MPV A GFP neutralization [3]: 5.99 ng/mL | Binding (FACS) relative to parental mAb MPK190-v1.1 [9]: 0.9 | IC50 (ng/ml), RSV B GFP neutralization [6]: 2.38 ng/mL | IC50 (ng/ml), RSV A GFP neutralization [7]: 3.18 ng/mL
